# Values joined by “and” are separate entries in the source; they are usually repeats but may differ in a detail not shown here. Equal values may be shown once. Ends that are not written are not given here. * marks the point of attachment. Galα1‑3Galβ1‑O(CH2)3NH2 = OC[C@H]1O[C@H](O[C@H]2[C@@H](O)[C@@H](CO)O[C@@H](OCCCN*)[C@@H]2O)[C@H](O)[C@@H](O)[C@H]1O
# B1: non-glycosylated CD4 peptide, Seq. Id. No. 8 (peptide)
# peptide: TKGPSKLNDRADSRR
# B2: CD4 peptide alone, Seq. Id. No. 6 (non-glycosylated) (peptide)
# peptide: KILGNQGSFLTKGPS
# B3: Gal-CD4-100 (peptide)
# peptide: D(Galα1‑3Galβ1‑O(CH2)3NH2)QFHWKNSNQIKILGN
# notes: also called GP1; glycopeptide 1
# B4: Gal-CD4-103 (peptide)
# peptide: D(Galα1‑3Galβ1‑O(CH2)3NH2)QGSFLTKGPSKLNDR
# notes: also called GP4; glycopeptide 4
# B5: Gal-CD4-104 (peptide)
# peptide: DTKGPSKLNDRADSRR
# modifications: not fully specified (residue 1)
# notes: also called glycopeptide 5
# B6: non-glycosylated CD4 peptide, Seq. Id. No. 9 (peptide)
# peptide: KLNDRADSRRSLWDQ
# B7: CD4 peptide alone, Seq. Id. No. 7 (non-glycosylated) (peptide)
# peptide: QGSFLTKGPSKLNDR
# B8: Gal-CD4-102 (peptide)
# peptide: DKILGNQGSFLTKGPS
# modifications: not fully specified (residue 1)
# notes: also called GP3; glycopeptide 3
# B9: Gal-CD4-101 (peptide)
# peptide: DNSNQIKILGNQGSFL
# modifications: not fully specified (residue 1)
# notes: also called GP2; glycopeptide 2
# B10: Gal-CD4-105 (peptide)
# peptide: DKLNDRADSRRSLWDQ
# modifications: not fully specified (residue 1)
# notes: also called GP6; glycopeptide 6
# B11: CD4 peptide alone, Seq. Id. No. 4 (non-glycosylated) (peptide)
# peptide: QFHWKNSNQIKILGN
# B12: CD4 peptide alone, Seq. Id. No. 5 (non-glycosylated) (peptide)
# peptide: NSNQIKILGNQGSFL
# Target: T1, gp120 of HIV-1 IIIB virus (HIV-1 IIIB, UniProt P04578 33-856)
# Test: cell-based or functional assay
Binder,"neutralization (inhibition of syncytia formation, U87 CD4+ CXCR4+ cells), peptide without serum","decrease in the infectivity (RT activity day 11, H9 cells, HIV IIIB) at 0.01 µg/ml glycopeptide (approximately 5 nM) with 5 or 10% human serum","neutralization (RT activity day 11, H9 cells, HIV IIIB) at 1 µg/ml glycopeptide with 5 or 10% human serum"
B1,< 40%,,
B2,< 40%,,
B3,< 40%,,
B4,< 40%,> 50%,90%
B5,< 40%,> 50%,90%
B6,< 40%,,
B7,< 40%,,
B8,< 40%,> 50%,90%
B9,< 40%,,
B10,< 40%,,
B11,< 40%,,
B12,< 40%,,

# Target: T1, gp120 of HIV-1 IIIB virus
# Test: cell-based or functional assay
# Remark: another data set of the same source
Binder,"percentage of neutralization of the virus (plaque assay, U87 CD4 cells, HIV-1 IIIB); CD4 peptide alone 0.1 ug/ml","percentage of neutralization of the virus (plaque assay, U87 CD4 cells, HIV-1 IIIB); CD4 peptide alone 1 ug/ml","percentage of neutralization of the virus (plaque assay, U87 CD4 cells, HIV-1 IIIB); CD4 peptide alone 10 ug/ml","percentage of neutralization of the virus (plaque assay, U87 CD4 cells, HIV-1 IIIB); glycosylated Sp. exchanger 0.1 ug/ml & 1:10 dilution human serum","percentage of neutralization of the virus (plaque assay, U87 CD4 cells, HIV-1 IIIB); glycosylated Sp. exchanger 0.1 ug/ml & 1:20 dilution human serum","percentage of neutralization of the virus (plaque assay, U87 CD4 cells, HIV-1 IIIB); glycosylated Sp. exchanger 0.1 ug/ml, no serum","percentage of neutralization of the virus (plaque assay, U87 CD4 cells, HIV-1 IIIB); glycosylated Sp. exchanger 1 ug/ml & 1:10 dilution human serum","percentage of neutralization of the virus (plaque assay, U87 CD4 cells, HIV-1 IIIB); glycosylated Sp. exchanger 1 ug/ml & 1:20 dilution human serum","percentage of neutralization of the virus (plaque assay, U87 CD4 cells, HIV-1 IIIB); glycosylated Sp. exchanger 1 ug/ml, no serum","percentage of neutralization of the virus (plaque assay, U87 CD4 cells, HIV-1 IIIB); glycosylated Sp. exchanger 10 ug/ml & 1:10 dilution human serum"
B2,< 0.3 fraction (0.3 equals 30%),< 0.3 fraction (0.3 equals 30%),< 0.3 fraction (0.3 equals 30%),,,,,,,
B3,,,,0.48 fraction (0.3 equals 30%),0.47 fraction (0.3 equals 30%),< 0.3 fraction (0.3 equals 30%),0.48 fraction (0.3 equals 30%),0.47 fraction (0.3 equals 30%),< 0.3 fraction (0.3 equals 30%),0.55 fraction (0.3 equals 30%)
B4,,,,0.439 fraction (0.3 equals 30%),< 0.3 fraction (0.3 equals 30%),< 0.3 fraction (0.3 equals 30%),0.461 fraction (0.3 equals 30%),< 0.3 fraction (0.3 equals 30%),< 0.3 fraction (0.3 equals 30%),0.454 fraction (0.3 equals 30%)
B5,,,,0.778 fraction (0.3 equals 30%),0.701 fraction (0.3 equals 30%),,0.821 fraction (0.3 equals 30%),0.667 fraction (0.3 equals 30%),0.548 fraction (0.3 equals 30%),0.83 fraction (0.3 equals 30%)
B7,< 0.3 fraction (0.3 equals 30%),< 0.3 fraction (0.3 equals 30%),< 0.3 fraction (0.3 equals 30%),,,,,,,
B8,,,,0.5 fraction (0.3 equals 30%),< 0.3 fraction (0.3 equals 30%),< 0.3 fraction (0.3 equals 30%),0.42 fraction (0.3 equals 30%),< 0.3 fraction (0.3 equals 30%),,0.6 fraction (0.3 equals 30%)
B9,,,,< 0.3 fraction (0.3 equals 30%),< 0.3 fraction (0.3 equals 30%),< 0.3 fraction (0.3 equals 30%),0.39 fraction (0.3 equals 30%),0.32 fraction (0.3 equals 30%),< 0.3 fraction (0.3 equals 30%),0.49 fraction (0.3 equals 30%)
B10,,,,0.76 fraction (0.3 equals 30%),0.71 fraction (0.3 equals 30%),< 0.3 fraction (0.3 equals 30%),0.75 fraction (0.3 equals 30%),0.75 fraction (0.3 equals 30%),< 0.3 fraction (0.3 equals 30%),0.78 fraction (0.3 equals 30%)
B11,< 0.3 fraction (0.3 equals 30%),< 0.3 fraction (0.3 equals 30%),< 0.3 fraction (0.3 equals 30%),,,,,,,
B12,< 0.3 fraction (0.3 equals 30%),< 0.3 fraction (0.3 equals 30%),< 0.3 fraction (0.3 equals 30%),,,,,,,

# Same assay, conditions: not given
Binder,"percentage of neutralization of the virus (plaque assay, U87 CD4 cells, HIV-1 IIIB); glycosylated Sp. exchanger 10 ug/ml & 1:20 dilution human serum","percentage of neutralization of the virus (plaque assay, U87 CD4 cells, HIV-1 IIIB); glycosylated Sp. exchanger 10 ug/ml, no serum"
B3,0.48 fraction (0.3 equals 30%),< 0.3 fraction (0.3 equals 30%)
B4,< 0.3 fraction (0.3 equals 30%),< 0.3 fraction (0.3 equals 30%)
B5,0.642 fraction (0.3 equals 30%),0.552 fraction (0.3 equals 30%)
B8,< 0.3 fraction (0.3 equals 30%),
B9,0.429 fraction (0.3 equals 30%),< 0.3 fraction (0.3 equals 30%)
B10,0.74 fraction (0.3 equals 30%),< 0.3 fraction (0.3 equals 30%)

# Target: T2, LAI gp120 molecule (PerkinElmer, Denmark) (HIV-1 LAI, UniProt P03377 33-516)
# T2 construct: domain: gp120; also called gp120 from LAI virus
# Test: ELISA on coated LAI gp120, detection with 1:10 or 1:20 human serum
row,Binder,lowest glycopeptide concentration at which binding was detected
1,B3,~5 nM and 10 ng/ml
2,B4,10 ng/ml and ~5 nM
3,B5,10 ng/ml and ~5 nM
4,B8,~5 nM and 10 ng/ml
5,B9,~5 nM and 10 ng/ml
6,B10,10 ng/ml and ~5 nM
